Assay results taken from patent US20250012721A1, “FLUORESCENCE DETECTION KIT FOR ACTIVATED COMPLEMENT C1s, DETECTION METHOD USING SAME, AND USE THEREOF” (JIANGSU UNIVERSITY, priority 2022, published 2025).

Molecular target: T1, activated C1s (Homo sapiens, UniProt P09871)
T1 construct: purchased Complement Technology
T1 sequence (P09871 16-437 limits assumed): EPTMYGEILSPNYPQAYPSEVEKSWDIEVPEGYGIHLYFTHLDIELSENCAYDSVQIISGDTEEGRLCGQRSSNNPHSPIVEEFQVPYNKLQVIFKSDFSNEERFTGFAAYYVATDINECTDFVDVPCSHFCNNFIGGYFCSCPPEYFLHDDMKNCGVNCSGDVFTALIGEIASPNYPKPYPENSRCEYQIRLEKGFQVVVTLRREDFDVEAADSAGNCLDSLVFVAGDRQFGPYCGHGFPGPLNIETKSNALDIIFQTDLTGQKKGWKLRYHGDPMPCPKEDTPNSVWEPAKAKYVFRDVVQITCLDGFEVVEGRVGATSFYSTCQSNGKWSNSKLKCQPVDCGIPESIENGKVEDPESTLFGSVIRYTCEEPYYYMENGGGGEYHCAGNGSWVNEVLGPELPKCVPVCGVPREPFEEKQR
T1 sequence (P09871 438-688 limits assumed): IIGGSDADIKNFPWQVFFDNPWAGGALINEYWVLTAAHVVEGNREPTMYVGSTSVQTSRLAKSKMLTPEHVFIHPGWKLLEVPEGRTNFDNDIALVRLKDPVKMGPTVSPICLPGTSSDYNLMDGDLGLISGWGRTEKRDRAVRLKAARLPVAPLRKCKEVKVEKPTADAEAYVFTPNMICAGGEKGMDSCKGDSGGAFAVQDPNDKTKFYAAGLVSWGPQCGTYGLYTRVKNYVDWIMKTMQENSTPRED
Assay: N-carboxybenzyloxythiobenzyl ester/DTNB colorimetric detection of enzymatic activity of C1s standard
Type: biochemical
Conditions: for Enzymatic activity of C1s standards: conversion from Example 4
Source text: In the present disclosure, the enzymatic activity of activated C1s was detected in a sample to be tested. Therefore, it was necessary to determine the enzymatic activity of a C1s standard used in the experiment and to prepare a standard curve for later C1s enzymatic activity. The enzymatic activity of the activated C1s was detected by an N-carboxybenzyloxythiobenzyl ester/5,5′-dithiobis(2-nitrobenzoic acid) colorimetric method. The method specifically included the steps as follows: • (1) Materials: 1) Analysis buffer: 50 mM Tris, 250 mM NaCl, pH=8.0; • 2) substrate: N-carboxybenzyloxythiobenzyl ester (ZKSBzl), dissolved in 10 mM dimethyl sulfoxide; and • 3) 5,5′-dithiobis(2-nitrobenzoic acid) (DTNB), dissolved in 10 mM dimethyl sulfoxide. • (2) Detection of C1s activity units: • 1. The C1s standard was diluted to 0.2 μg/mL with an assay buffer. • 2. The DNTB was added to the assay buffer at a final concentration of 200 μM, and a substrate was added to the assay buffer at a final concentration of 1,000 μM. • 3. 50 μL of 0.2 ng/μL C1s was added into a plate. • 4. 50 μL of a mixture including 1,000 μM substrate/200 μM DTNB was added to the wells to start a reaction. • 5. An absorbance at 5 min was read at 405 nm with a microplate reader. • (3) Calculation of activated C1s:
In subsequent experiments, the enzymatic activity of the C1s standard was defined in this way.

B1: C1s standard: humanized or recombinant C1s standard; activated C1s used as calibrator (protein)
chain 1: T1 sequence (P09871 16-437 limits assumed)
chain 2: T1 sequence (P09871 438-688 limits assumed)
enzymatic activity (1 μg/mL C1s standard): 0.91 pmol/min/µg
Enzymatic activity of C1s standards (6.25 μg/mL): 5.7 pmol/min/µg
Enzymatic activity of C1s standards (12.5 μg/mL): 11.4 pmol/min/µg
Enzymatic activity of C1s standards (25 μg/mL): 22.8 pmol/min/µg
Enzymatic activity of C1s standards (50 μg/mL): 45.5 pmol/min/µg
Enzymatic activity of C1s standards (100 μg/mL): 91 pmol/min/µg
Enzymatic activity of C1s standards (200 μg/mL): 182 pmol/min/µg
